Results taken from patent US6797811.

Columns and labels:
[1] = target: T1, FLAG-tagged 88C receptor (human, UniProt P51681 1-352); assay: equilibrium binding of 125I-MIP-1β to HEK-293 cells expressing FLAG-tagged 88C, Scatchard analysis
T1 sequence: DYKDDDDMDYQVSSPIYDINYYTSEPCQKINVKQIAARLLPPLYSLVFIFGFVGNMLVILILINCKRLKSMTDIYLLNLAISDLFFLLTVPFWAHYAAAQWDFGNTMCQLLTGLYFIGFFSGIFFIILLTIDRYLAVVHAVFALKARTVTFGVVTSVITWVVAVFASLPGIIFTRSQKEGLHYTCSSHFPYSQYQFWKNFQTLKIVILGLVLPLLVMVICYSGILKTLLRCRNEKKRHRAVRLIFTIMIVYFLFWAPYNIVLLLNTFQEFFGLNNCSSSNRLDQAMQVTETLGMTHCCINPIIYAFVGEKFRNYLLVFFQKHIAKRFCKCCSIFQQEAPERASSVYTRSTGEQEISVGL
Source text: (§1) Another assay for receptor interaction with chemokines was a modification of the binding assay described by Ernst et al. *J. Immunol.* 152:3541–3549 (1994). MIP-1β as labeled using the Bolton and Hunter reagent (di-iodide, NEN, Wilmington, Del.), according to the manufacturer's instructions. Unconjugated iodide was separated from labeled protein by elution using a PD-10 column (Pharmacia) equilibrated with PBS and BSA (1% w/v). The specific activity was typically 2200 Ci/mmole. Equilibrium binding was performed by adding ^125I-labeled ligand with or without a 100-fold excess of unlabeled ligand, to 5×10^5 HEK-293 cells transfected with 88C tagged with the FLAG epitope in polypropylene tubes in a total volume of 300 µl (50 mM HEPES pH 7.4, 1 mM CaCl_2, MgCl_2, 0.5% BSA) and incubating for 90 minutes at 27° C. with shaking at 150 rpm. […] After washing, the filters were removed and bound ligand was quantitated by counting gamma emissions. Ligand binding by competition with unlabeled ligand was determined by incubation of 5×10^5 transfected cells (as above) with 1.5 nM of radiolabeled ligand and the indicated concentrations of unlabeled ligand. The samples were collected, washed and counted as above. The data was analyzed using the curve-fitting program Prism (GraphPad Inc., San Diego, Calif.) and the iterative non-linear regression program, LIGAND (PM220).

[2] = target: T1, FLAG-tagged 88C receptor; assay: competition of unlabelled ligand with 1.5 nM 125I-MIP-1β on HEK-293 cells expressing FLAG-tagged 88C
Source text: as §1

[3] = target: T1, FLAG-tagged 88C receptor; assay: cell-based or functional assay

B1: MIP-1β (ligand, UniProt P13236 24-92, looked up)
chain: APMGSDPPTACCFSYTARKLPRNFVVDYYETSSLCSQPAVVFQTKRSKQVCADPSESWVQEYVYDLELN
notes: also called MIP-1beta; radiolabeled MIP-1β
B1 was tested. Which Kd [1] did it give?
Its Kd is 1.6 nM.

What about the IC50 [2] of the same binder?
The IC50 was 7.4 nM.

And the “EC50 of inositol phosphate formation (phospholipase C assay), COS-7 cells co-transfected with Gqi5” value [3]?
Its value is 6 nM.
